The test in a line: Interaction analysis between CEA-V2122-del5 and modified biotin using Biacore T200 (single-cycle kinetics, bivalent analysis mode). The conditions noted are these: analyte Psyche J-iodine. The test is classed as binding. How it is done:
The interaction between CEA-V2122-del5 and a modified biotin was analyzed using Biacore T200. The Psyche J-iodine described in Production Example 1 was used herein as a modified biotin.
The analysis method was specifically as follows. That is, an amine-coupling kit was used, a target value was set to be 3000 RU, and the purified CEA-V2122-del5 was immobilized on Sensor Chip CM5. With regard to the concentrations of the analytes, 2.5E−09 M was two-fold diluted, and 5 types of two-fold serial dilutions including 2.5E-09 M were prepared and used in the measurement. Regarding interaction analysis, data were obtained by single-cycle kinetics analysis. Using Biacore T200 Evaluation Software, version 2.0, the obtained data were subjected to curve fitting in a bivalent analysis mode, and the following values were obtained: ka1=6.3E+03, and kd1=8.0E−06.
For orientation: Surface plasmon resonance follows binding to a sensor surface in real time, without labels.

Setting [1] is: CEA-V2122-del5 immobilized on Sensor Chip CM5, 5 two-fold serial dilutions from 2.5E-09 M, curve fitting in bivalent analysis mode.

B1: CEA-V2122-del5: fusion of scFv-type anti-CEACAM5 antibody and mutant streptavidin V2122 lacking 11 C-terminal amino acids including 6xHis tag (SEQ ID NO: 18) (protein)
chain: MKYLLPTAAAGLLLLAAQPAMAQVKLEQSGAEVVKPGASVKLSCKASGFNIKDSYMHWLRQGPGQRLEWIGWIDPENGDTEYAPKFQGKATFTTDTSANTAYLGLSSLRPEDTAVYYCNEGTPTGPYYFDYWGQGTLVTVSSGGGGSGGGGSGGGGSENVLTQSPSSMSVSVGDRVNIACSASSSVPYMHWLQQKPGKSPKLLIYLTSNLASGVPSRFSGSGSGTDYSLTISSVQPEDAATYYCQQRSSYPLTFGGGTKLEIKGGGGSGGGGAEAGITGTWSDQLGDTFIVTAGADGALTGTYENAVGGAESRYVLTGRYDSAPATDGSGTALGWTVAWKNNSKNAHSATTWSGQYVGGADAKINTQWLLTSGTTNANAWKSTLVGHDTFTKVK
Under setting [1], B1 yielded a ka1 of 6.3E+03 and a kd1 of 8.0E−06. Besides, for the setting “evaluation value from the bivalent analysis”, the “KD=kd1/ka1” value is given as 1.3E−09.

The values above are taken from patent publication US20220348681A1, “FUSED PROTEIN OF AN ANTIBODY WHICH RECOGNIZES CANCER-CELLS AND A STREPTAVIDIN MUTANT” (THE UNIVERSITY OF TOKYO, priority 2021, published 2022).
